Test results published in US20230052646A1 (JJP BIOLOGICS SP Z O O, published 2023).

T1: membrane-bound full-length human HVEM on stable HVEM-transfected HEK293F cells (clone no. 128) (human, UniProt Q92956 39-283)
T1 construct: The same cDNA was also expressed on Sf9 insect cells; also called TNFRSF14; CD270
T1 sequence: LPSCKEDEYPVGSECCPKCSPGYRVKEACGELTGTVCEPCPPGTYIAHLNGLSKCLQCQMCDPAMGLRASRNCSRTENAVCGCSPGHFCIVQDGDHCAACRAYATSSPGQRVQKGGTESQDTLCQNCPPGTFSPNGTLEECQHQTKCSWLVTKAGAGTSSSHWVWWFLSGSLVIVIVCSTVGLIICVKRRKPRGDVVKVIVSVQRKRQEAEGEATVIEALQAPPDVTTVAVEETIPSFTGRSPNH

T2: membrane-bound 'CRD1 truncated' human HVEM on transiently transfected HEK293F cells (human, UniProt Q92956 76-283)
T2 construct: aa 1-19 are a mouse Ig signal peptide and are left out; Starts with CRD2; also called human HVEM deleted for CRD1; CRD1 truncated HVEM
T2 sequence: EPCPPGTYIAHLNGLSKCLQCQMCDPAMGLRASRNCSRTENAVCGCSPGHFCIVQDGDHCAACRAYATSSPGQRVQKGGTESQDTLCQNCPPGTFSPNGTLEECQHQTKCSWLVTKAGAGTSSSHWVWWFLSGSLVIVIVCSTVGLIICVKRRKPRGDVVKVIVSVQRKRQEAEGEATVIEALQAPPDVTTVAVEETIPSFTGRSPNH


Assays:
[1] = target: T1, membrane-bound full-length human HVEM …; assay: FACS titration on HVEM-HEK293F, half-maximum binding
Description: In order to determine the relative binding affinity of purified BTLA/HVEM blocking chimeric mouse/human anti-human HVEM antibodies no. 36H12, 45H6, 48H6, 11H7, and 49G4 for human HVEM, FACS analysis was used.
To this end, stable human full-length HVEM-transfected HEK293F cells (clone no. 128; see Example 1(a) above) were put at 10×10⁶ cells/mL in ice-chilled PBS containing 0.1% BSA (Sigma)/0.05% NaN₃ (PBS/BSA/NaN₃) supplemented with 50 μg/mL human IgGs (blocking possible Fcγ receptors; Sigma) for 10 minutes at 4° C. Then, 10 μL/tube (i.e., 0.1×10⁶ cells) of these cells were incubated with or without 100 μL titrated (in PBS/BSA/NaN₃) purified BTLA/HVEM blocking chimeric mouse/human anti-human HVEM antibody/tube for 30 minutes at 4° C. After extensive washing in PBS/BSA/NaN₃, cells were subsequently incubated with 1:200 diluted PE-conjugated goat anti-human IgG Fcγ-specific antibodies (Jackson ImmunoResearch) for 30 minutes at 4° C. After extensive washing in PBS/BSA/NaN₃, cells were fixed in 4% formaldehyde in PBS/BSA/NaN₃ for 30 minutes at 4° C. Binding (geo-mean fluorescence intensity) of chimeric mouse/human anti-human HVEM antibodies no. 36H12, 45H6, 48H6, 11H7, and 49G4 on membrane human HVEM was measured using a flow cytometer (FACSCalibur; BD Biosciences). For comparison, purified BTLA/HVEM blocking mouse anti-human HVEM antibody counterparts no. 36H12, 45H6, 48H6, 11H7, and 49G4 were run in parallel, and their binding was monitored as described in Example 2 (a).

[2] = target: T1, membrane-bound full-length human HVEM …; assay: FACS, biotinylated TNFβ pre-bound, then Ab 20 µg/mL
Description: (§1) Generation of human ‘full-length’ HVEM-transfected HEK293F cells (clone no. 128) is described in Example 1a. Displacement of pre-bound soluble human BTLA, soluble human CD160, soluble human LIGHT, and soluble human TNFβ from surface human HVEM-transfected cells was analysed by FACS analysis. To this end, stable human full-length HVEM-transfected HEK293F cells were put at 10×10⁶ cells/mL in ice-chilled phosphate-buffered saline containing 0.1% BSA (Sigma)/0.05% NaN₃ (PBS/BSA/NaN₃) supplemented with 50 μg/mL human IgGs (blocking possible Fcγ receptors; Sigma) for 10 minutes at 4° C. Then, 10 μL/tube (i.e., 0.1×10⁶ cells) of these cells were incubated without or with 50 μL soluble biotinylated human BTLA-human Fcγ fusion protein (Sino Biological Inc) at 2 μg/mL/tube, with soluble his-tagged human CD160 (Sino Biological Inc) at 20 μg/mL/tube, with soluble his-tagged human LIGHT (Sino Biological Inc) at 2 μg/mL/tube, or with soluble biotinylated human TNFβ (Sino Biological Inc) at 0.2 μg/mL/tube in PBS/BSA/NaN₃ for 30 minutes at 4° C. After this (i.e., without washing), cells were subsequently incubated with 50 μL purified chimeric mouse/human anti-HVEM antibody at 20 μg/mL/tube or a human IgG4/κ (Sigma) negative isotype control at 20 μg/mL/tube for 30 minutes at 4° C. […] After extensive washing in PBS/BSA/NaN₃, cells were incubated with 1:200 diluted PE-conjugated streptavidin (detection CD160 and LIGHT; Jackson ImmunoResearch) for 30 minutes at 4° C. After extensive washing in PBS/BSA/NaN₃, cells were fixed in 4% formaldehyde in PBS/BSA/NaN₃ for 30 minutes at 4° C. Residual binding of ligands BTLA, CD160, LIGHT and TNFβ on membrane human HVEM was measured using a flow cytometer (model FACSCalibur; BD Biosciences).

[3] = target: T1, membrane-bound full-length human HVEM …; assay: FACS, biotinylated BTLA-Fc pre-bound, then Ab 20 µg/mL
Description: as §1

[4] = target: T1, membrane-bound full-length human HVEM …; assay: FACS, Ab 10 µg/mL then biotinylated BTLA on HVEM-HEK293F
Description: (§2) Generation of human ‘full-length’ HVEM-transfected HEK293F cells (clone no. 128) is described in Example 1a. Binding of soluble human BTLA, of soluble human CD160, of soluble human LIGHT, and of soluble human TNFβ on surface human HVEM-transfected cells was analysed by FACS analysis. To this end, stable human full-length HVEM-transfected HEK293F cells were put at 10×10⁶ cells/mL in ice-chilled phosphate-buffered saline containing 0.1% BSA (Sigma)/0.05% NaN₃ (PBS/BSA/NaN₃) supplemented with 50 μg/mL human IgGs (blocking possible Fcγ receptors; Sigma) for 10 minutes at 4° C. Then, 10 μL/tube (i.e., 0.1×10⁶ cells) of these cells were incubated with or without 100 μL purified chimeric mouse/human anti-HVEM antibody at 10 μg/mL/tube or a human IgG4/κ (Sigma) negative isotype control at 10 μg/mL/tube for 30 minutes at 4° C. After this (i.e., without washing), cells were subsequently incubated with 1 μg/mL soluble biotinylated human BTLA (Sino Biological Inc), with 10 μg/mL soluble his-tagged human CD160 (Sino Biological Inc), with 1 μg/mL soluble his-tagged human LIGHT (Sino Biological Inc), or with 0.1 μg/mL soluble biotinylated human TNFβ (Sino Biological Inc) in PBS/BSA/NaN₃ for 30 minutes at 4° C. After extensive washing in PBS/BSA/NaN₃, cells were incubated with 1:200 diluted PE-conjugated streptavidin (detection BTLA and TNFβ; Jackson ImmunoResearch) or with biotinylated mouse anti-his antibody (detection CD160 and LIGHT; R&D Systems) at 10 μg/mL for 30 minutes at 4° C. After extensive washing in PBS/BSA/NaN₃, cells were incubated with 1:200 diluted PE-conjugated streptavidin (detection CD160 and LIGHT; Jackson ImmunoResearch) for 30 minutes at 4° C. After extensive washing in PBS/BSA/NaN₃, cells were fixed in 4% formaldehyde in PBS/BSA/NaN₃ for 30 minutes at 4° C. Binding of ligands BTLA, CD160, LIGHT and TNFβ on membrane human HVEM was measured using a flow cytometer (model FACSCalibur; BD Biosciences). For comparison, purified BTLA/HVEM blocking mouse anti-human HVEM antibody counterparts no. 36H12, 45H6, 48H6, 11H7, and 49G4 at 10 μg/mL/tube and a mouse IgG1 (BD Biosciences) negative isotype control at 10 μg/mL/tube were run in parallel.

[5] = target: T1, membrane-bound full-length human HVEM …; assay: FACS, Ab 10 µg/mL then biotinylated TNFβ on HVEM-HEK293F
Description: as §2

[6] = target: T2, membrane-bound 'CRD1 truncated' human …; assay: FACS, undiluted hybridoma supernatant, CRD1 truncated HVEM on HEK293F
Description: Generation of human ‘full-length’ HVEM-transfected HEK293F cells (clone no. 128) is described in Example 1a. […] After 72 hours, surface human HVEM expression on transfected cells was analysed by FACS analysis. To this end, stable human full-length HVEM-transfected HEK293F cells and transient human ‘CRD1 truncated’ HVEM-transfected HEK293F cells were put at 10×10⁶ cells/mL in ice-chilled phosphate-buffered saline containing 0.1% BSA (Sigma)/0.05% NaN₃ (PBS/BSA/NaN₃) supplemented with 50 μg/mL human IgGs (blocking of possible Fcγ receptors; Sigma) for 10 minutes at 4° C. Then, 10 μL/tube (i.e., 0.1×10⁶ cells) of these cells were incubated with 100 μL undiluted hybridoma supernatant/tube for 30 minutes at 4° C. Phycoerythrin (PE)-conjugated mouse anti-human HVEM antibody (clone eBioHVEM-122; eBioscience) at 1:20 was run as a positive control antibody. After extensive washing in PBS/BSA/NaN₃, cells were subsequently incubated with 1:200 diluted PE-conjugated goat anti-mouse IgG Fcγ-specific antibodies (Jackson ImmunoResearch) for 30 minutes at 4° C. After extensive washing in PBS/BSA/NaN₃, cells were fixed in 2% formaldehyde in PBS/BSA/NaN₃ for 30 minutes at 4° C. Binding of antibodies was measured using a flow cytometer (model FACSCalibur; BD Biosciences).

EC50 [1] [µg/mL] | % displacement of pre-bound ligand [2] [%] | % displacement of pre-bound ligand [3] [%] | % blocking of ligand binding [4] [%] | % blocking of ligand binding [5] [%] | binding result [6] | Binder
0.26 |  |  | > 95 |  | no binding | mouse anti-human HVEM antibody no. 45H6 (antibody, mouse IgG1, V domains shown, mouse IgG1/kappa; also called 45H6 (mouse)) VH: DVQLVESGGGLVQPGGSRKLSCAASGFTFSSFGMHWVRQAPEKGLEWVAYISSGNSNIYYVDTVKGRFTISRDNPKNTLFLQMTSLRSEDTAMYYCARKRAYGDYSGFSMDYWGQGTSVTVSS VL: DIVMTQSQKFMSTSVGDRVSVTCKASQNVDTNVAWYQQKPGQSPKALIYSASYRYSGVPDRFTGSGSGTDFTLTISNVQSEDLAEYFCQQYNKFPLTFGGGTKLEIK
0.266 |  |  | > 95 | > 85 | no binding | mouse anti-human HVEM antibody no. 49G4 (antibody, mouse IgG1, V domains shown, mouse IgG1/kappa; also called 49G4 (mouse)) VH: EVQLQQSGAELVKPGASVKLSCRASGFNIKDTYMHWVKQRPEQGLEWIGRIDPARGNTKYDPKFQGKATITADTSSNTAYLQLSSLTSEDTAVYYCASAMDYWGQGTSVTVSS VL: DVLMTQTPLSLPVSLGDQASISCRSSQSIVHSNGNTYLEWFLQKPGQSPKLLIYKVSNRFSGVPDRFSGSGSGTDFTLKISRVEAEDLGVYYCFQGSHVPLTFGAGTKLELK

Further lines, the binder ahead of its results:

Binder | EC50 [1] [µg/mL] | % displacement of pre-bound ligand [2] [%] | % displacement of pre-bound ligand [3] [%] | % blocking of ligand binding [4] [%] | % blocking of ligand binding [5] [%] | binding result [6]
chimeric mouse/human IgG4/kappa anti-human HVEM antibody no. 11H7 (antibody, V domains shown, 40/41 within the entry; Stabilized human IgG4 (S239P) already in the entry; also called chimeric 11H7) VH: QVQLKQSGPGLVQPSQSLSITCTVSGFSLTIYGVHWVRQSPGKGLEWLGVIWSGGSTDYNAAFISRLSISKDNSKSQVFFKMNSLQANDTAIYYCARRDYGSRSFYYAMDYWGQGTSVTVSS VL: EIVLTQSPALMAASPGEKVTITCSVSSSISSSNLHWYQQKSETSPKPWIYGTSNLASGVPVRFSGSGSGTSYSLTISSMEAEDAATYYCQQWSSYPLTFGGGTKLEIKR | 0.63 | < 20 | > 95 | > 95 | > 55 | 
mouse anti-human HVEM antibody no. 11H7 (antibody, mouse IgG1, V domains shown, mouse IgG1/kappa; also called 11H7 (mouse)) VH: QVQLKQSGPGLVQPSQSLSITCTVSGFSLTIYGVHWVRQSPGKGLEWLGVIWSGGSTDYNAAFISRLSISKDNSKSQVFFKMNSLQANDTAIYYCARRDYGSRSFYYAMDYWGQGTSVTVSS VL: EIVLTQSPALMAASPGEKVTITCSVSSSISSSNLHWYQQKSETSPKPWIYGTSNLASGVPVRFSGSGSGTSYSLTISSMEAEDAATYYCQQWSSYPLTFGGGTKLEIK | 0.532 |  |  | > 95 | > 60 | no binding
